{"source": "patent US20110177501", "about": "“BIOSENSOR FOR DETECTION AND VISUALISATION OF SINGLE-STRANDED DNA” (MEDICAL RESEARCH COUNCIL, published 2011)", "key": {"IDCC-E. coli SSB (G26C) [1]": {"molecular_target": "T1, IDCC-E. coli SSB (G26C) (Escherichia coli, UniProt P0AGE0 SEQ:1-177, G26C (mature protein numbering as printed))", "test": "competition; ratio Kd(IDCC-SSB)/Kd(unlabeled SSB); 200 mM NaCl, 30 C", "conditions": "tags: IDCC diethylaminocoumarin label on Cys26; chain copies: 4 (stated, tetramer)", "experimental": "(§1) In order to obtain a molecule suitable for solution measurements, a suitably large fluorescence increase on binding DNA, together with reasonably bright fluorescence quantum yield are the main criteria. Fluorescence spectra of 250 nM labeled E. coli SSB (tetramer concentration) were measured at 30° C. in 25 mM Tris.HCl pH 7.5, 200 mM NaCl, 1 mM DTT, and 5 μM bovine serum albumin.\n(§2) In order to determine the effect of labeling on the affinity of E. coli SSB for ssDNA, dT₇₀ was titrated into a mixture of unlabeled E. coli SSB and IDCC-E. coli SSB (FIG. 4). It is apparent that low concentrations of DNA bind mainly to the unlabeled E. coli SSB, as there is only a small increase in fluorescence. This implies that the unlabeled protein has the higher affinity."}, "[2]": {"molecular_target": "unlabeled E. coli SSB (S92C) (Escherichia coli, UniProt P0AGE0 SEQ:1-177, S92C (mature protein numbering as printed))", "test": "competition; binds dT70 28-fold more tightly than IDCC-SSB", "conditions": "chain copies: 4 (stated, tetramer)", "experimental": "as §1, §2"}, "MIANS-E. coli SSB (S92C)": {"molecular_target": "MIANS-E. coli SSB (S92C) (Escherichia coli, UniProt P0AGE0 SEQ:1-177, S92C)", "test": "25 mM Tris pH 7.5, 200 mM NaCl, 30 C", "conditions": "tags: MIANS label on Cys92; chain copies: 4 (stated, tetramer)", "experimental": "as §1\n(§3) Excitation was at the appropriate wavelength for the fluorophore and the emission intensities at the maximum were measured in the absence and presence of saturating dT₇₀. The two coumarins, IDCC and MDCC gave the largest fluorescence enhancement with G26C and this mutant protein labeled with IDCC, IDCC-E. coli SSB, was chosen for further study for two reasons. Firstly it gave consistently a larger increase than MDCC. […] In the case of MDCC, reaction of its maleimide with a protein cysteine causes the production of diastereoisomers. […] In contrast, reaction of IDCC with a thiol should produce only a single molecular species."}, "[3]": {"molecular_target": "Alexa Fluor 488-E. coli SSB (S92C) (Escherichia coli, UniProt P0AGE0 SEQ:1-177, S92C)", "test": "25 mM Tris pH 7.5, 200 mM NaCl, 30 C", "conditions": "tags: Alexa Fluor 488 label on Cys92; chain copies: 4 (stated, tetramer)", "experimental": "as §1, §3"}, "IDCC-E. coli SSB (G26C) [4]": {"molecular_target": "T1, IDCC-E. coli SSB (G26C)", "test": "25 mM Tris pH 7.5, 200 mM NaCl, 30 C", "conditions": "tags: IDCC diethylaminocoumarin label on Cys26; chain copies: 4 (stated, tetramer)", "experimental": "as §1, §3"}, "[5]": {"molecular_target": "6-IATR-E. coli SSB (S92C) (Escherichia coli, UniProt P0AGE0 SEQ:1-177, S92C)", "test": "25 mM Tris pH 7.5, 200 mM NaCl, 30 C", "conditions": "tags: 6-IATR label on Cys92; chain copies: 4 (stated, tetramer)", "experimental": "as §1, §3"}, "[6]": {"molecular_target": "Alexa Fluor 546-E. coli SSB (G26C) (Escherichia coli, UniProt P0AGE0 SEQ:1-177, G26C)", "test": "25 mM Tris pH 7.5, 200 mM NaCl, 30 C", "conditions": "tags: Alexa Fluor 546 label on Cys26; chain copies: 4 (stated, tetramer)", "experimental": "as §1, §3"}, "MDCC-E. coli SSB (G26C)": {"molecular_target": "MDCC-E. coli SSB (G26C) (Escherichia coli, UniProt P0AGE0 SEQ:1-177, G26C)", "test": "25 mM Tris pH 7.5, 200 mM NaCl, 30 C", "conditions": "tags: MDCC label on Cys26; chain copies: 4 (stated, tetramer)", "experimental": "as §1, §3"}, "[7]": {"molecular_target": "Alexa Fluor 488-E. coli SSB (G26C) (Escherichia coli, UniProt P0AGE0 SEQ:1-177, G26C)", "test": "25 mM Tris pH 7.5, 200 mM NaCl, 30 C", "conditions": "tags: Alexa Fluor 488 label on Cys26; chain copies: 4 (stated, tetramer)", "experimental": "as §1, §3"}, "IDCC-E. coli SSB (S92C)": {"molecular_target": "IDCC-E. coli SSB (S92C) (Escherichia coli, UniProt P0AGE0 SEQ:1-177, S92C)", "test": "25 mM Tris pH 7.5, 200 mM NaCl, 30 C", "conditions": "tags: IDCC label on Cys92; chain copies: 4 (stated, tetramer)", "experimental": "as §1, §3"}, "MDCC-E. coli SSB (S92C)": {"molecular_target": "MDCC-E. coli SSB (S92C) (Escherichia coli, UniProt P0AGE0 SEQ:1-177, S92C)", "test": "25 mM Tris pH 7.5, 200 mM NaCl, 30 C", "conditions": "tags: MDCC label on Cys92; chain copies: 4 (stated, tetramer)", "experimental": "as §1, §3"}, "[8]": {"molecular_target": "Alexa Fluor 546-E. coli SSB (S92C) (Escherichia coli, UniProt P0AGE0 SEQ:1-177, S92C)", "test": "25 mM Tris pH 7.5, 200 mM NaCl, 30 C", "conditions": "tags: Alexa Fluor 546 label on Cys92; chain copies: 4 (stated, tetramer)", "experimental": "as §1, §3"}, "[9]": {"molecular_target": "6-IATR-E. coli SSB (G26C) (Escherichia coli, UniProt P0AGE0 SEQ:1-177, G26C)", "test": "25 mM Tris pH 7.5, 200 mM NaCl, 30 C", "conditions": "tags: 6-IATR label on Cys26; chain copies: 4 (stated, tetramer)", "experimental": "as §1, §3"}, "[10]": {"molecular_target": "6-IATR-E. coli SSB (W88C) (Escherichia coli, UniProt P0AGE0 SEQ:1-177, W88C (mature protein numbering as printed))", "test": "tight binding, saturates at 1:1 dT70:tetramer; 200 mM NaCl", "conditions": "tags: 6-IATR rhodamine label on Cys88; chain copies: 4 (stated, tetramer)"}}, "data": [{"binder": "dT70 (ssDNA) DNA: TTTTTTTTTTTTTTTTTTTTTTTTTTTTTTTTTTTTTTTTTTTTTTTTTTTTTTTTTTTTTTTTTTTTTT", "values": [{"measurement": "binding signal", "setting": "IDCC-E. coli SSB (G26C) [1]", "result": "28 fold Kd vs unlabeled SSB S92C"}, {"measurement": "binding result", "setting": "[2]", "result": "binds"}, {"measurement": "activity", "setting": "MIANS-E. coli SSB (S92C)", "result": "0.4 fluorescence ratio +/- dT70"}, {"measurement": "activity", "setting": "[3]", "result": "3.1 fluorescence ratio +/- dT70"}, {"measurement": "activity", "setting": "IDCC-E. coli SSB (G26C) [4]", "result": "6.1 fluorescence ratio +/- dT70"}, {"measurement": "activity", "setting": "[5]", "result": "1.3 fluorescence ratio +/- dT70"}, {"measurement": "activity", "setting": "[6]", "result": "2.3 fluorescence ratio +/- dT70"}, {"measurement": "activity", "setting": "MDCC-E. coli SSB (G26C)", "result": "4.9 fluorescence ratio +/- dT70"}, {"measurement": "activity", "setting": "[7]", "result": "3.3 fluorescence ratio +/- dT70"}, {"measurement": "activity", "setting": "IDCC-E. coli SSB (S92C)", "result": "2.8 fluorescence ratio +/- dT70"}, {"measurement": "activity", "setting": "MDCC-E. coli SSB (S92C)", "result": "2.2 fluorescence ratio +/- dT70"}, {"measurement": "activity", "setting": "[8]", "result": "1.5 fluorescence ratio +/- dT70"}, {"measurement": "activity", "setting": "[9]", "result": "2.8 fluorescence ratio +/- dT70"}, {"measurement": "activity", "setting": "[10]", "result": "~4.5 fold fluorescence (+/- DNA)"}]}]}
